We go through one substance from patent US20250282868A1.

In experiment [1] the target is mouse TREM2 (mouse) (UniProt Q99NH8). As to the kind of experiment: MFI on CT26 cells over-expressing mouse TREM2 and DAP12; control in the row of EOS006169.
For experiment [2] the target is unchanged. As to the kind of experiment: MFI on CT26 cells over-expressing mouse TREM2 and DAP12; control in the row of Ab52.
Experiment [3] shares this target. As to the kind of experiment: MFI on CT26 cells over-expressing mouse TREM2 and DAP12; control in the row of PN-37012.
Experiment [4] shares this target. As to the kind of experiment: MFI on CT26 cells over-expressing mouse TREM2 and DAP12; control in the row of EOS006178.
For experiment [5] the target is unchanged. As to the kind of experiment: MFI on CT26 cells over-expressing mouse TREM2 and DAP12; control in the row of EOS006174.
The target is the same in experiment [6]. As to the kind of experiment: MFI on CT26 cells over-expressing mouse TREM2 and DAP12; control in the row of EOS006181.
The target is the same in experiment [7]. As to the kind of experiment: MFI on CT26 cells over-expressing mouse TREM2 and DAP12; control in the row of EOS006180.
The target is the same in experiment [8]. In words: MFI on CT26 cells over-expressing mouse TREM2 and DAP12; control in the row of EOS006164.
For experiment [9] the target is unchanged. As to the kind of experiment: MFI on CT26 cells over-expressing mouse TREM2 and DAP12; control in the row of EOS006173.
The target is the same in experiment [10]. In words: MFI on CT26 cells over-expressing mouse TREM2 and DAP12; control in the row of EOS006176.
Experiment [11] has the same target. As to the kind of experiment: MFI on CT26 cells over-expressing mouse TREM2 and DAP12; control in the row of EOS006167.
Experiment [12] shares this target. In words: MFI on CT26 cells over-expressing mouse TREM2 and DAP12; control in the row of EOS006168.
Experiment [13] has the same target. As to the kind of experiment: MFI on CT26 cells over-expressing mouse TREM2 and DAP12; control in the row of EOS006162.
The target is the same in experiment [14]. As to the kind of experiment: MFI on CT26 cells over-expressing mouse TREM2 and DAP12; control in the row of EOS006165.
Experiment [15] has the same target. In words: MFI on CT26 cells over-expressing mouse TREM2 and DAP12; control in the row of EOS006177.
Experiment [16] shares this target. In words: MFI on CT26 cells over-expressing mouse TREM2 and DAP12; control in the row of EOS006163.
Experiment [17] shares this target. As to the kind of experiment: MFI on CT26 cells over-expressing mouse TREM2 and DAP12; control in the row of EOS006172.
The target is the same in experiment [18]. As to the kind of experiment: MFI on CT26 cells over-expressing mouse TREM2 and DAP12; control in the row of EOS006166.
Experiment [19] shares this target. As to the kind of experiment: MFI on CT26 cells over-expressing mouse TREM2 and DAP12; control in the row of EOS006175.
Experiment [20] has the same target. As to the kind of experiment: MFI on CT26 cells over-expressing mouse TREM2 and DAP12; control in the row of EOS006170.
For experiment [21] the target is unchanged. In words: MFI on CT26 cells over-expressing mouse TREM2 and DAP12; control in the row of EOS006179.

mouse TREM2 (mouse), sequence (Q99NH8 19-227): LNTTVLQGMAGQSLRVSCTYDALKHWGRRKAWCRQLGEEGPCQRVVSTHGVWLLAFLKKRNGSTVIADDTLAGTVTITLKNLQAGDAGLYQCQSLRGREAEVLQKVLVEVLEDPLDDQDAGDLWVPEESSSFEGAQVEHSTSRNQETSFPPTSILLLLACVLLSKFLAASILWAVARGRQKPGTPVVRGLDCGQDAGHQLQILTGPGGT

Consider Isotype control (antibody), for which the Isotype control on CT26-TREM2 MFI in the experiment with mouse TREM2 (mouse) [1] was 679 MFI; with mouse TREM2 (mouse) [2] it was 402 MFI; with mouse TREM2 (mouse) [3], 302 MFI; with mouse TREM2 (mouse) [4] it was 345 MFI; in the experiment with mouse TREM2 (mouse) [5], 345 MFI; in the experiment with mouse TREM2 (mouse) [6], 345 MFI. Also, the Isotype control on CT26-TREM2 MFI with mouse TREM2 (mouse) [7] worked out at 2170 MFI; with mouse TREM2 (mouse) [8], 345 MFI; in the experiment with mouse TREM2 (mouse) [9], 679 MFI; in the experiment with mouse TREM2 (mouse) [10], 345 MFI; in the experiment with mouse TREM2 (mouse) [11], 2170 MFI; with mouse TREM2 (mouse) [12], 2170 MFI. Also, the Isotype control on CT26-TREM2 MFI was 2170 MFI with mouse TREM2 (mouse) [13]; 2170 MFI with mouse TREM2 (mouse) [14]; 345 MFI with mouse TREM2 (mouse) [15]; 402 MFI with mouse TREM2 (mouse) [16]; 2170 MFI with mouse TREM2 (mouse) [17]; 295 MFI with mouse TREM2 (mouse) [18]. The Isotype control on CT26-TREM2 MFI with mouse TREM2 (mouse) [19], in the experiment with mouse TREM2 (mouse) [20] and in the experiment with mouse TREM2 (mouse) [21] was 679 MFI in each case.
